Source: article PMC7820937
Where two headings read alike, the source gives them in different places.

Key:
Assay in all cases: ELISA
[1] = target: C4BP α-chain deletant ΔCCP1 (human) (UniProt P04003)
[2] = target: C4BP α-chain deletant ΔCCP2 (human) (UniProt P04003)
[3] = target: C4BP α-chain deletant ΔCCP3 (human) (UniProt P04003)
[4] = target: C4BP α-chain deletant ΔCCP4 (human) (UniProt P04003)
[5] = target: C4BP α-chain deletant ΔCCP5 (human) (UniProt P04003)
[6] = target: C4BP α-chain deletant ΔCCP6 (human) (UniProt P04003)
[7] = target: C4BP α-chain deletant ΔCCP7 (human) (UniProt P04003)
[8] = target: C4BP α-chain deletant ΔCCP8 (human) (UniProt P04003)
[9] = target: C4BP α-chain deletant ΔCCP4 (human) (UniProt P04003); remark: listed apart in the source
[10] = target: C4BP α-chain deletant ΔCCP5 (human) (UniProt P04003); remark: listed apart in the source

| Substance | percent loss of binding against full-length C4BP [1] [%] | percent loss of binding against full-length C4BP [2] [%] | percent increase of binding against full-length C4BP [3] [%] | percent loss of binding against full-length C4BP [4] [%] | percent loss of binding against full-length C4BP [5] [%] | percent increase of binding against full-length C4BP [6] [%] | percent loss of binding against full-length C4BP [7] [%] | percent loss of binding against full-length C4BP [8] [%] | percent loss of binding against full-length C4BP [9] [%] | percent loss of binding against full-length C4BP [10] [%] |
| --- | --- | --- | --- | --- | --- | --- | --- | --- | --- | --- |
| Influenza A virus A/England/2009 (H1N1), whole virus particles (complex) | 20 | 20 | 10 | 60 | 60 | 10 | 49 | 75 | 67 | 67 |
| Influenza A virus A/HK/99 (H3N2), whole virus particles (complex) | 80 | 80 | 10 | 80 | 80 | 10 | 62 | 75 | – | – |
